One test has as its system PI3K. Description: Western blot of PI3K phosphorylation in RT-HCEpiC. It is filed as cell-based, human. Conditions: 10 ng/mL for 10 minutes. As to the method:
(§1) Human corneal epithelial cells (HCEpiC) were treated with 10% PEG-3350 in serum-free media over the course of 16 hours in an attempt to understand the molecular mechanisms behind the observed positive effect on corneal re-epithelization. Cell lysates were collected and assessed for protein activation by western blot using antibodies targeting key phosphorylation sites.
RT-HCEpiC cell suspensions (2.5×10^5 cells/ml) were prepared in complete medium with 10% Fetal Bovine Serum (“FBS”) and added to each well of a 6-well plate, 2.5 mL suspension per well. When cells reached confluence, they were serum starved overnight in basal DMEM/F12. Treatments were delivered in basal medium; treatments include control, 10 ng/mL HB-EGF (Heparin-bi-binding EGF-like growth factor) for 10 minutes; or 10% PEG-3350 for 10, 15, 20, 30 minutes, 1, 2, 4, 6, or 16 hours. Cell lysates were assayed for protein concentration and evaluated for Akt, ERK, EGFR, and PI3K activation by Western blot.
(§2) Culture medium was aspirated from each well and cells were washed with cold, non-sterile PBS twice. […] Cell lysates were assayed for protein concentration and analyzed by western blot. […]
(§3) Western Blot: Analysis of Western blot band density in captured and stored digital images was done using the Quantity One software on the VersaDod MP 4000. Density of bands was quantified. […]
For orientation: A western blot detects proteins with antibodies after separation by electrophoresis.

Another test relates to Akt. Put plainly: Western blot of Akt phosphorylation in RT-HCEpiC. It is filed as cell-based, human. Conditions: 10 ng/mL for 10 minutes. Here is the method:
as §1
(§4) FIG. 11 is a graphical representation of peak phosphorylation time points for pAkt, pERK, and pEGFR. […] Cell lysates were collected and assessed for protein activation by western blot using antibodies targeting key phosphorylation sites. […] Ratio of phosphorylated protein to total, non-phosphorylated was quantified by densitometry.
(§5) RT-HCEpiC cell suspensions (2.5×10^5 cells/ml) were prepared in complete medium with 10% Fetal Bovine Serum (“FBS”) and added to each well of a 6-well plate, 2.5 mL suspension per well. […] Cell lysates were assayed for protein concentration and evaluated for Akt, ERK, EGFR, and PI3K activation by Western blot.
as §2, §3

Another test relates to EGFR. Description: Western blot of EGFR phosphorylation in RT-HCEpiC. It is filed as cell-based, human. Conditions: 10 ng/mL for 10 minutes. As to the method:
as §1, §4, §5, §2, §3

The test system of the next test is ERK. Put plainly: Western blot of ERK phosphorylation in RT-HCEpiC. The settings on record: 10 ng/mL for 10 minutes. It is filed as cell-based, human. As to the method:
as §1, §4, §5, §2, §3

In test [1] the test system is Riken human corneal epithelial cell line (RT-HCEpiC). Description: Monolayer scratch assay (corneal re-epithelization). It is filed as cell-based. Conditions: 10 ng/mL; 16 hours after wounding. Here is the method: A single horizontal scratch was made to the HCEpiC monolayer. Cells were then incubated with PEG 3350 or HPMC 2910 in basal culture medium. Wound healing was calculated as the difference in the gap width between baseline measurements and after 16-hour incubation and is expressed as percentage gap closure. Bars represent the difference in the gap width between baseline measurements and after 16-hour incubation with treatment groups (n=3); lines on bars represent the standard error of the means. Raw data were analyzed with a one-way ANOVA followed by the Dunnett's Method test. * denotes statistical significance versus vehicle control; p<0.05.
We have developed an in vitro wound healing model using transformed human corneal epithelial cells insulted with a scratch to the monolayer and monitored for growth into the resulting cell-free gap. […]
Cells were examined and photographed after scratch and after 16 hours incubation with treatment to monitor closure of the cell-free gap using a light microscope. The percent closure was determined using the following equation. […]
Comparisons were made between treatment groups and the vehicle controls to determine the effect of the treatment on re-epithelization. […] All data was analyzed utilizing the statistical analysis software JMP (SAS Institute, Cary, N.C.).

B1: Heparin-binding EGF-like growth factor (protein, UniProt Q99075 63-148, looked up)
Heparin-binding EGF-like …: DLQEADLDLLRVTLSSKPQALATPNKEEHGKRKKKGKGLGKKRDPCLRKYKDFCIHGECKYVKELRAPSCICHPGYHGERCHGLSL
notes: growth factor used as positive assay control
As for B1, the pPI3K entry with PI3K is given as “no effect”. Moreover, the “phosphorylation of Akt” value in the test with Akt is recorded as “substantially increased”. The “phosphorylation of EGFR” value in the test with EGFR was “substantially increased”. The “phosphorylation of ERK” value in the test with ERK is given as “substantially increased”. Also, the “corneal re-epithelization (percent gap closure) versus vehicle control” value in test [1] is given as “significantly increased”.
